B1: 8D2 (antibody, V domains shown)
VH: EVQLVESGGGLVQPGGSLRLSCAASGFTFSSYWMSWVRQAPGKGLEWVANINQDGSEKYYVDSVKGRFTISRDNAKNSLYLQVNSLRAEDTAVYYCARDWDYDILTGSWFGAFDIWGQGTTVTVSS
VL: DIQMTQSPSSLSASVGDRVTITCRASQGIRNDLGWYQQKPGKAPKRLIYAASSLQSGVPSRFSGSGSGTEFTLTISSLQPEDFATYYCLQHNSYPLTFGGGTKVEIK
B2: COV2-2490 (antibody, V domains shown)
VH: EVQLVESGGGLVQPGGSLRLSCAASGFTFSSYWMNWVRQAPGKGLEWVANINQDGGEKYYVDSVRGRFTISRDNAKNSLYLQMNSLRAEDTAVYYCARDPYDLYGDYGGTFDYWGQGTLVTVSS
VL: not shown

Target: soluble WT SARS-CoV-2 spike trimer protein (SARS-CoV-2, wild-type (NC_045512), UniProt P0DTC2)
Assay: ELISA

Binder	binding result
B1	binds
B2	binds

Reference: PMC11849304 (Virology Journal, 2025)
